Test results as given in the DeepSol protein solubility set.

Assay: soluble on expression in E. coli; label from the status in PepcDB or PDB records
For “MTLLGTALRPAATRVMLLGSGELGKEVAIECQRLGVEVIAVDRYADAPAMHVAHRSHVINMLDGDALRRVVELEKPHYIVPEIEAIATDMLIQLEEEGLNVVPCARATKLTMNREGIRRLAAEELQLPTSTYRFADSESLFREAVADIGYPCIVKPVMSSSGKGQTFIRSAEQLAQAWKYAQQGGRAGAGRVIVEGVVKFDFEITLLTVSAVDGVHFCAPVGHRQEDGDYRESWQPQQMSPLALERAQEIARKVVLALGGYGLFGVELFVCGDEVIFSEVSPRPHDTGMVTLISQDLSEFALHVRAFLGLPVGGIRQYGPAASAVILPQLTSQNVTFDNVQNAVGADLQIRLFGKPEIDGSRRLGVALATAESVVDAIERAKHAAGQVKVQG”, the “soluble on expression in E. coli” value was “soluble”.
In the case of “MGSDKIHHHHHHMYSYNQLRRVTFNQLGRIAYNSRSSPRRRAVFERLAGARPVVLTQERERLAVLDHANDIILEQEINGIDTVTFNIPFSDEKNQFIQNEHLIQIIDDYYIIRKITHSRGSQGVPITEVYAEALWYDLQFAEPMDISEWEGRAPAIVMADILRGTDWSVGRVELMNVRNVSVEPGVTNRLAALSQLPEVYGGELHFNSEAMTVDFLAPVGRQSGAAIVYEKNIHSIEAIYDTEDLITRIYPYGKENLSIEDINDGVPYLDIRDDPSYEFTDKLRVRILKDDRFTNPFHLREMAEEALKVLSQPRTSYHIKAADLSEMAGMSHEQFFLGDEVRVYDKELGIDIATRIMAWQYNVAEPWNTEIMLESKQPTLSDLLTGIQEGTGFLQSEDTVDSSDMLELSVFNHILNSRADDGFHYWTNSGWEIDAVNGYSGNASFKATGTTGRKVLSQTVYPAHRDHYAISFRSATKEFQTNDGGRVGLEIIVRYDDGTEDEPTFISLT”, the “soluble on expression in E. coli” value is reported as “not soluble”.
For “RKDFTKEEVNYLFHGVKTMGNHWNSILWSFPFQKGRRAVDLAHKYHRLI”, the “soluble on expression in E. coli” value was “soluble”.
In the case of “MQVIPLKPLDNKTLEEIGLDWHTNDDMSSYIADEMVVVSQKEADAYYDACNELYDMFVETAEEAIQNDRFFELDIPNALIPMIKQSFEEEVHWHIYGRFDLAGGLDGKPIKLLEFNADTPTMLYETAVIQWALLKANGYDENKQFNNLYEALGENFKRMVTLGEDTSRFEEMYEGWKILFSSVRGNIEEERTMRFLQDAAQSVGFETDFSYIDEVEFNIEEGVFKNGLNYEFLFKLIPWENIAIDEPELALLMQGMMENKNTIFLNPAYTILFQSKRFLKLLWDRYPNHPLLLETSYEPLANKKQIKKVAFGREGANSEIFEASMQSLLKTDGVYSNHKPVYQEFYELNSHNGLYYQPNVFFAYESCALGFRKGGLILDNFSKFVSHRLQ”, the “soluble on expression in E. coli” value is reported as “not soluble”.
In the case of “DIQMTQSPSTLSASIGDRVTITCRASEGIYHWLAWYQQKPGKAPKLLIYKASSLASGAPSRFSGSGSGTDFTLTISSLQPDDFATYYCQQYSNYPLTFGGGTKLEIKRTVAAPSVFIFPPSDEQLKSGTASVVCLLNNFYPREAKVQWKVDNALQSGNSQESVTEQDSKDSTYSLSSTLTLSKADYEKHKVYACEVTHQGLSSPVTKS”, the “soluble on expression in E. coli” value is reported as “soluble”.
For “MKTAAYMIHCLTNMHVGKGDATYEVVDKCVQRDVTTGMPCIYSSSLKGALRQFFSKQGFAELNYVFGKDQSRDKKNNGNEKNEEEHSVGNFTFFQANLLAYPVQTTQEGATYILKTNKTLQDPIKELANLFSAPSNIEEMLPKETEKDLSNETLEQLPVIARNQLDNGKSENLWYEEVVPAESRFVFFVSYDDEEIFTKFDKIIQEKVIQIGANGSIGYGFCKIANVTNPFKK”, the “soluble on expression in E. coli” value was “soluble”.
With “MAGDPNSMFSPQASAAYDDLHEGYATYTGSGYSGGAFLLDPIPSDMEITAINPADLNYGGVKAALAGSYLEVEGPKGKTTVYVTDLYPEGARGALDLSPNAFRKIGNMKDGKINIKWRVVKAPITGNFTYRIKEGSSRWWAAIQVRNHKYPVMKMEYEKDGKWINMEKMDYNHFVSTNLGTGSLKVRMTDIRGKVVKDTIPKLPESGTSKAYTVPGHVQFPELEHHHHHH” the “soluble on expression in E. coli” value was “soluble”.
In the case of “MSLVTIKDVALKAGVSPSTVSRVIKGNKRISEATISKVKKVMEELNYFPNTAARTLITNQTYKIGLVLKGSEEPIRLNPFYINVLLGISETCNQHGYGTQTTVSNNMNDLMDEVYKMIKQRMVDAFILLYSKENDPIKQMLIDESMPFIVIGKPTSDIDHQFTHIDNDNILASENLTRHVIEQGVDELIFITEKGNFEVSKDRIQGFETVASQFNLDYQIIETSNEREVILNYMQNLHTRLKDPNIKQAIISLDAMLHLAILSVLYELNIEIPKDVMTATFNDSYLTEIASPPQTCIDIKPRMLGQQAGSAILNILKNKAQDVIELVIIDTELKIRKSTQREGHHHHHH”, the “soluble on expression in E. coli” value is reported as “soluble”.
With “TAGFYINSEISDYFWIKTEFNYVNRGYTHKEAGKTLKTNYYCIDVYPVTPAFHYKGAQIFAGPSVTLLVASNRDTLIGGEVKKIADNKLDGINRYDIGIMAGVEYEFNFGLNIGVRMVRGFTSLYEPVNSIQTQWFNQTYLFTLGYSI” the “soluble on expression in E. coli” value was “not soluble”.
In the case of “MGSDKIHHHHHHMDRKLLRLYQPLNAYSYNSDSLFLYDFSRPFIKNSGAILDIGSGCGILGLLCARDNPLAIVHLVEKDNKMAFCSQKNALKFPNAQVFEGDFLDFNPPILYDIIVCNPPFYALGSIKSKIKGHARHQSELDFASLVAKVKKCLKPKGYFIFCYEALSLCLVIEGLKSVKLTLETLRFVQSFKDKNAHLMLGAARNNSKSALKVLPPLITHHSKNQSDNTKEVLSIYQTCNTYSIKALLN”, the “soluble on expression in E. coli” value is reported as “not soluble”.
For “MSGNTVKLNVGGTVFETLKSTLTKHDGFFKALIETDVPAEKDDSNCFFIDRSPKHFETVLNYMRSGDVVLPDSKKDMLELKKEAEYYLLSNLAKLCQPPTDNFKTCTPEELMRVVANTDKKVIMINYLTYNGELVFYPWGFNLVHFLIQNRDYVEDVYFRRTESQYPEDGPFPNEKPYWTFLVYNSTRSGRRPFRHTVDLEDCMGHM”, the “soluble on expression in E. coli” value was “not soluble”.
With “MLITKNQAEKWFDNSLGKQFNPDLFYGFQCYDYANMFFMLATGERLQGLYAYNIPFDNKAKIEKYGQIIKNYDSFLPQKLDIVVFPSKYGGGAGHVEIVESANLNTFTSFGQNWNGKGWTNGVAQPGWGPETVTRHVHYYDNPMYFIRLNFPNNLSVGNKAKGIIKQATTKKEAVIKPKKIMLVAGHGYNDPGAVGNGTNERDFIRKYITPNIAKYLRHAGHEVALYGGSSQSQDMYQDTAYGVNVGNKKDYGLYWVKSQGYDIVLEIHLDAAGESASGGHVIISSQFNADTIDKSIQDVIKNNLGQIRGVTPRNDLLNVNVSAEININYRLSELGFITNKNDMDWIKKNYDLYSKLIAGAIHGKPIGGVVASEVKAPVKNEKNPPVPAGYTLDKNNVPYKKEQGNYTVANVKGNNVRDGYSTNSRITGVLPNNTTITYDGAYCINGYRWITYIANSGQRRYIATGEVDIAGNRISSFGKFSAV” the “soluble on expression in E. coli” value was “soluble”.
In the case of “MSEWRGFNRKGNTMKIRPGRHNAPDFPHGAAVTIGNFDGVHLGHKHILQKLRLEADARGLPVVAVVFEPQPKEFFALRTGKTPPCRISPLRTKLELLEGTGCVDAAWVLRFDRNFSEISAQAFIDRLLRQTLNTRYLLVGDDFRFGAGREGCFELLAQQPDMQTERTPSVIVEDIRTSSTAVRQALSDGNLAYAKKLLGHDYVLGGRVVHGRKLGRTLNAPTANIRLPGHRYALGGVFVVEADGAFGTRRGVASFGFNPTVDGGCSQKLEVHLFDFQGDLYGQRLNVRFLHKLRDEEKFDGMEELKRRIEADMEAAKCW”, the “soluble on expression in E. coli” value is reported as “not soluble”.
With “MQNAIKTDASNSTVEARDEEPVAANDNKPASNPGTSVTEDSVAYIFASTYRDTLRFCHSTGAWFEWDGSYWRRNEVGLAAHHVRVMARDMSQGLSPKALATIRKRSFASGVEGFARNDPTFAVTIEAWDRDPFLLGTPDGTVDLRTGKMRAADPADGITKLTSTAPSAQADCPLWLRFLQDATGGDGEMIRFLQQWCGYCLTGDTREHALVFVHGDGGNGKSVFLNTTSYILHDYATTASMDTFVASRSDRHPTDLAMLRGARLVSASETEEGRAWAESRIKQMTGGDAISARFMRQDFFTFQPQFKLFVVGNHQPALHSVDAAARRRFNIVPFTRKPTKPDRELEAKLRGEAPAILRWMVDGCRDWQRNGLVRPASIVEATETYFAEQDTFGQWLKDACRVEPDNRSISDFVADLFKSWTDYAEASGERPGSQKGFVQSLTKSGFKKGQRVRGGQLYIGLQLLRQAEKEPSVRDLEHHHHHH” the “soluble on expression in E. coli” value was “soluble”.
In the case of “MTKETYPKATVLDISASVEYSDGGIISKQVLKNEVGNITLFSFDQGQGLSEHTAPFDAFVQILEGEAEIRIGGQPLLLKAGRSVIMPANVSHALHATKRFKMLLTMIRG”, the “soluble on expression in E. coli” value is reported as “not soluble”.
